Test results as given in patent publication US20240116985A1, “STAPLED PEPTIDES AND METHODS THEREOF” (priority 2020, published 2024).
Starred links: 1 amine or outer side, 2 acyl side, 3 side chain; linkers in the order of their positions; H or OH if unused. Positions of bridges follow the written chain, without caps; N, C: chain ends. Non-standard residues stand in square brackets, D forms with d. Primed or numbered codes have the meaning given here. PyrS2″ = (S)-3-amino-1-((pent-4-en-1-yloxy)carbonyl)pyrrolidine-3-carboxylic acid (stapling residue), C=CCCCOC(=O)N1CC[C@@](N[*:1])(C(=O)[*:2])C1; B5(4) = 2,2-bis(4-pentenyl)glycine = 2-amino-2-(pent-4-en-1-yl)hept-6-enoic acid (stitching residue), C=CCCCC(CCCC=C)(N[*:1])C(=O)[*:2]; B5(5) = 2,2-bis(4-pentenyl)glycine, 2-amino-2-(pent-4-en-1-yl)hept-6-enoic acid (stitching residue), C=CCCCC(CCCC=C)(N[*:1])C(=O)[*:2]; TfeGA = (S)-2-amino-3-((carboxymethyl)(2,2,2-trifluoroethyl)amino)propanoic acid, O=C([C@H](CN(CC(=O)[*:3])CC(F)(F)F)N[*:1])[*:2]; B5(3) = 2,2-bis(4-pentenyl)glycine (stitching residue), C=CCCCC(CCCC=C)(N[*:1])C(=O)[*:2]; B5 = 2-amino-2-(pent-4-en-1-yl)hept-6-enoic acid, C=CCCCC(CCCC=C)(N[*:1])C(=O)[*:2]; Phe(3-COOH) = N[C@@H](Cc1cccc(C(=O)O)c1)C(=O)O; 2F3MeF = Cc1cccc(C[C@H](N[*:1])C(=O)[*:2])c1F; Phe(2-CF3) = N[C@@H](Cc1ccccc1C(F)(F)F)C(=O)O; Bip = N[C@@H](Cc1ccc(-c2ccccc2)cc1)C(=O)O; Phe(2-Cl) = N[C@@H](Cc1ccccc1Cl)C(=O)O; Met(O2) = CS(=O)(=O)CC[C@H](N)C(=O)O; Bta = N[C@@H](Cc1csc2ccccc12)C(=O)O; Lys(iPr) = CC(C)NCCCC[C@H](N)C(=O)O; αAllylPro = C=CC[C@@]1(C(=O)O)CCCN1; tBuAla = CC(C)(C)C[C@H](N)C(=O)O; 3Thi = N[C@@H](Cc1ccsc1)C(=O)O; Cha = N[C@@H](CC1CCCCC1)C(=O)O; S8 = C=CCCCCCC[C@](C)(N)C(=O)O; hSer = N[C@@H](CCO)C(=O)O

molecular target: full-length beta-Catenin (Uniprot ID P35222) (Homo sapiens (Human)) (UniProt P35222); assay: fluorescence polarization competition; full-length beta-catenin + 5FAM-TCF4(10-53) probe; peptide titrated
Target sequence in this assay (P35222 2-781 limits assumed): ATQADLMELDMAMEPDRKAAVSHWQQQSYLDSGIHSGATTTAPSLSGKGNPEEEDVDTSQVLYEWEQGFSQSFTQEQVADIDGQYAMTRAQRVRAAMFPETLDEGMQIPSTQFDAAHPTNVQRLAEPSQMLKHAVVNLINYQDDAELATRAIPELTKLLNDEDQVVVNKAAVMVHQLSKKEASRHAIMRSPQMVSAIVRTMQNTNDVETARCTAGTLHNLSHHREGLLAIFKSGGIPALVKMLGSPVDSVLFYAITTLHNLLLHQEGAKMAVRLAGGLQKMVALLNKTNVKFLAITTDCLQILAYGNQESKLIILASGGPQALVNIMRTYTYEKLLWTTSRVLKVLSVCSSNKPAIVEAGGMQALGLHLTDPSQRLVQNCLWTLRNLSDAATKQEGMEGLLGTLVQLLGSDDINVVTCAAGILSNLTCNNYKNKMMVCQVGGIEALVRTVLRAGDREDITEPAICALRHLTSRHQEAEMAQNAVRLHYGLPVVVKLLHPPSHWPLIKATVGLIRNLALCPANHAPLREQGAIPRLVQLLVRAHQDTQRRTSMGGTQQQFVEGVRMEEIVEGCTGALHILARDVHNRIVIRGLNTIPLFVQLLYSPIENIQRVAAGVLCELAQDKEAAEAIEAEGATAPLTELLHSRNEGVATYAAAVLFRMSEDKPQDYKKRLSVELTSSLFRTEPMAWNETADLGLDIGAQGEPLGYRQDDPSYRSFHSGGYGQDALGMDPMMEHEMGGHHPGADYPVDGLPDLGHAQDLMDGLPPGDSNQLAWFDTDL

EC50 [nM]	Binder
58	Ac-[αAllylPro]D[tBuAla][B5(3)]D[TfeGA]AAFN[S8][3Thi][Bta]H-NH2 (staple 1-4, 4-11) [I-705]
54	Ac-[αAllylPro]D[Cha][B5(3)]D[TfeGA]AAFN[S8][3Thi][Bta]H-NH2 (staple 1-4, 4-11) [I-709]

molecular target: full-length beta-Catenin (Uniprot ID P35222) (Homo sapiens (Human)) (UniProt P35222); assay: fluorescence polarization competition; 10 nM full-length beta-catenin, 10 nM 5FAM-TCF4(10-53) as competitor probe
Target sequence in this assay (P35222 2-781 limits assumed): as above

IC50 [nM]	Binder
56	Ac-[αAllylPro]D[tBuAla][B5(4)]D[Phe(3-COOH)]AAFL[PyrS2″][Phe(2-CF3)][Bta][Met(O2)]-NH2 (staple 1-4, 4-11) [I-2063]
144	Ac-[αAllylPro]N[Cha][B5(4)]DQ[Lys(iPr)]AFN[PyrS2″]F[Bta]A-NH2 (staple 1-4, 4-11) [I-2065]
16	Ac-[αAllylPro]D[tBuAla][B5(3)]D[Phe(3-COOH)]TAFL[PyrS2″][3Thi][Bta]A-NH2 (staple 1-4, 4-11) [I-2051]
41	Ac-[αAllylPro]D[tBuAla][B5(4)]D[Phe(3-COOH)]AAFL[PyrS2″][Phe(2-Cl)][Bta][Met(O2)]-NH2 (staple 1-4, 4-11) [I-2062]
180	Ac-[αAllylPro]N[Cha][B5(4)]DQQAFN[PyrS2″]F[Bta][hSer]-NH2 (staple 1-4, 4-11) [I-2067]

More lines, now with the values behind:

Binder	IC50 [nM]
Ac-[αAllylPro]D[tBuAla][B5(3)]D[Phe(3-COOH)]QAFF[PyrS2″][3Thi][Bta]A-NH2 (staple 1-4, 4-11) [I-2052]	12
Ac-[αAllylPro]D[tBuAla][B5(4)]D[Phe(3-COOH)]QAFV[PyrS2″][3Thi][Bta]A-NH2 (staple 1-4, 4-11) [I-2054]	5
Ac-[αAllylPro]D[tBuAla][B5(4)]D[Phe(3-COOH)]QAFL[PyrS2″][3Thi][Bta]L-NH2 (staple 1-4, 4-11) [I-2056]	16
Ac-[αAllylPro]D[tBuAla][B5(4)]D[Phe(3-COOH)]SAFL[PyrS2″][Phe(2-CF3)][Bta]A-NH2 (staple 1-4, 4-11) [I-2059]	38
Ac-[αAllylPro]D[tBuAla][B5(4)]D[Phe(3-COOH)]NAFL[PyrS2″][Phe(2-CF3)][Bta]A-NH2 (staple 1-4, 4-11) [I-2058]	10
Ac-[αAllylPro]D[tBuAla][B5(4)]D[Phe(3-COOH)]QAFL[PyrS2″][2F3MeF][Bta]A-NH2 (staple 1-4, 4-11) [I-2057]	17
Ac-[αAllylPro]D[tBuAla][B5(4)]D[Phe(3-COOH)]TAFL[PyrS2″][Phe(2-CF3)][Bta]A-NH2 (staple 1-4, 4-11) [I-2060]	56
Ac-[αAllylPro]N[Cha][B5(5)]DQHAFN[PyrS2″]F[Bta][hSer]-NH2 (staple 1-4, 4-11) [I-2066]	357

molecular target: full-length beta-Catenin (Uniprot ID P35222) (Homo sapiens (Human)) (UniProt P35222); assay: fluorescence polarization competition; full-length beta-catenin with 5FAM-labeled TCF4 residues 10-53 probe as competitor
Target sequence in this assay (P35222 whole entry, the tested form may be a part): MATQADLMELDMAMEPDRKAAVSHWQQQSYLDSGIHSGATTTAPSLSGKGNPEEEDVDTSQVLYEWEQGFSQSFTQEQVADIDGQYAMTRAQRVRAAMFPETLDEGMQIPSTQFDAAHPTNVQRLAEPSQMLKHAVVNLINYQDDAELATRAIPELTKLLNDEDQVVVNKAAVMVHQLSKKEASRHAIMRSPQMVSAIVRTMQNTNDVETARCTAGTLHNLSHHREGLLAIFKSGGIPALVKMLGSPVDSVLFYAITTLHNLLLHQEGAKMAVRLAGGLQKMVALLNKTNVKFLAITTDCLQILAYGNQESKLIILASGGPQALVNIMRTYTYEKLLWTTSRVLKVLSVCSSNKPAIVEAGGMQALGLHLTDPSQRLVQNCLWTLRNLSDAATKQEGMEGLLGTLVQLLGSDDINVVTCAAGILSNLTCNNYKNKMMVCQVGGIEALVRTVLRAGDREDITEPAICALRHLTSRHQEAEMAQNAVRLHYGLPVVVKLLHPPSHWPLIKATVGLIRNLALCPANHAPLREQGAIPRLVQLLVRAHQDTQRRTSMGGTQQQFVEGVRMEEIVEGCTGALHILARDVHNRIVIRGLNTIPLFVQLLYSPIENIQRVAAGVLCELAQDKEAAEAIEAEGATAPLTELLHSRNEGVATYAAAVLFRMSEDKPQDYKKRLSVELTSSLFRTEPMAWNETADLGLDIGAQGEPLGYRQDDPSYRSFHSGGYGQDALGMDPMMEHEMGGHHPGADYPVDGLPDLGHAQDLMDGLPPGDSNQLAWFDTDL

EC50 [nM]	Binder
3830	Ac-[αAllylPro]DI[B5]DEAA[Bip]Q[S8]F[Bta]Q-NH2 (staple 1-4, 4-11) [I-723]
82	Ac-[αAllylPro]D[tBuAla][B5]DEAAFN[S8][3Thi][Bta]-NH2 (staple 1-4, 4-11) [I-718]
91	Ac-[αAllylPro]DL[B5]DEAAFN[S8][3Thi][Bta]-NH2 (staple 1-4, 4-11) [I-716]

molecular target: full-length beta-Catenin (Uniprot ID P35222) (Homo sapiens (Human)) (UniProt P35222); assay: fluorescence polarization competition; peptide titrated against full-length beta-catenin + 5FAM-TCF4(10-53)
Target sequence in this assay (P35222 whole entry, the tested form may be a part): as above

IC50 [nM]	Binder
3830	Ac-[αAllylPro]DI[B5]DEAA[Bip]Q[S8]F[Bta]Q-NH2 (staple 1-4, 4-11) [I-723]
82	Ac-[αAllylPro]D[tBuAla][B5]DEAAFN[S8][3Thi][Bta]-NH2 (staple 1-4, 4-11) [I-718]
91	Ac-[αAllylPro]DL[B5]DEAAFN[S8][3Thi][Bta]-NH2 (staple 1-4, 4-11) [I-716]
58	Ac-[αAllylPro]D[tBuAla][B5(3)]D[TfeGA]AAFN[S8][3Thi][Bta]H-NH2 (staple 1-4, 4-11) [I-705]
54	Ac-[αAllylPro]D[Cha][B5(3)]D[TfeGA]AAFN[S8][3Thi][Bta]H-NH2 (staple 1-4, 4-11) [I-709]
